Source: IntAct's records for PubMed 29039417

B1: Protein PTHB1 (Homo sapiens), Q3SYG4 (parent)
chain: MSLFKARDWWSTILGDKEEFDQGCLCLANVDNSGNGQDKIIVGSFMGYLRIFSPHPAKTGDGAQAEDLLLEVDLRDPVLQVEVGKFVSGTEMLHLAVLHSRKLCVYSVSGTLGNVEHGNQCQMKLMYEHNLQRTACNMTYGSFGGVKGRDLICIQSMDGMLMVFEQESYAFGRFLPGFLLPGPLAYSSRTDSFLTVSSCQQVESYKYQVLAFATDADKRQETEQQKLGSGKRLVVDWTLNIGEQALDICIVSFNQSASSVFVLGERNFFCLKDNGQIRFMKKLDWSPSCFLPYCSVSEGTINTLIGNHNNMLHIYQDVTLKWATQLPHIPVAVRVGCLHDLKGVIVTLSDDGHLQCSYLGTDPSLFQAPNVQSRELNYDELDVEMKELQKIIKDVNKSQGVWPMTEREDDLNVSVVVSPNFDSVSQATDVEVGTDLVPSVTVKVTLQNRVILQKAKLSVYVQPPLELTCDQFTFEFMTPDLTRTVSFSVYLKRSYTPSELEGNAVVSYSRPTDRNPDGIPRVIQCKFRLPLKLICLPGQPSKTASHKITIDTNKSPVSLLSLFPGFASQSDDDQVNVMGFHFLGGARITVLASKTSQRYRIQSEQFEDLWLITNELILRLQEYFEKQGVKDFACSFSGSIPLQEYFELIDHHFELRINGEKLEELLSERAVQFRAIQRRLLARFKDKTPAPLQHLDTLLDGTYKQVIALADAVEENQGNLFQSFTRLKSATHLVILLIALWQKLSADQVAILEAAFLPLQEDTQELGWEETVDAAISHLLKTCLSKSSKEQALNLNSQLNIPKDTSQLKKHITLLCDRLSKGGRLCLSTDAAAPQTMVMPGGCTTIPESDLEERSVEQDSTELFTNHRHLTAETPRPEVSPLQGVSE
partner: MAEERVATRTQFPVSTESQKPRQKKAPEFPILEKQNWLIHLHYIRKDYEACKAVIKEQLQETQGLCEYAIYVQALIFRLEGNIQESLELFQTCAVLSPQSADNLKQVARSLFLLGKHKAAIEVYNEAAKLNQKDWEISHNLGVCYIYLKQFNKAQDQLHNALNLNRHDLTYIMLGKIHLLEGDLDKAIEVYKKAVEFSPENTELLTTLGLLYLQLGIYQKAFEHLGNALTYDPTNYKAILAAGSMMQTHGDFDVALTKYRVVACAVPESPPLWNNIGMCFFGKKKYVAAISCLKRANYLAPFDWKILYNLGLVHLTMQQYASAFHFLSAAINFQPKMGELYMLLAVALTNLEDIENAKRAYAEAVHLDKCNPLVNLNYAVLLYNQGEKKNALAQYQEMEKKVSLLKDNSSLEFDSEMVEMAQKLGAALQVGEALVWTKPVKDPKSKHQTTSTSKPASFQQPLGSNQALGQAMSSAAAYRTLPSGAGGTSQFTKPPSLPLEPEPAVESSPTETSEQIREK

Variants of: B1
Conditions: with bbs4_human BBS4, Q96RK4

Row | Variant | effect of a mutation on the interaction
1 | L698S | disrupting interaction strength
2 | V485E | with no effect
3 | S886K | with no effect
4 | L529K | with no effect
5 | L452E | with no effect
6 | G585E | with no effect
7 | R824A | with no effect
8 | E714A | with no effect
9 | P758K | with no effect
10 | P758A | with no effect
11 | A690K | disrupting interaction strength
12 | V706E | with no effect
13 | L680K | with no effect
14 | L680A | with no effect
15 | L411A | with no effect
16 | G584E | disrupting interaction strength
17 | D859K | with no effect
18 | D859A | with no effect
19 | N614A | with no effect
20 | G884K | with no effect
21 | S414A | with no effect
22 | D573K | with no effect
23 | S849E | with no effect
24 | D517K | with no effect
25 | L467K | with no effect
26 | E878K | with no effect

Row | Variant | effect of a mutation on the interaction
27 | N412A | with no effect
28 | R600A | with no effect
29 | R600G | disrupting interaction strength
30 | C783A | with no effect
31 | T549K | with no effect
32 | N800A | with no effect
33 | K821E | with no effect
34 | S498A | with no effect
35 | V442A | with no effect
36 | L531A | with no effect
37 | D686K | with no effect
38 | Q621A | with no effect
39 | P881A | with no effect
40 | R669K | with no effect
41 | R669E | with no effect
42 | G842K | with no effect
43 | S558A | with no effect
44 | L827A | with no effect
45 | P875K | with no effect
46 | I523K | with no effect
47 | I523A | with no effect
48 | H581K | with no effect
49 | I588E | with no effect
50 | I588K | with no effect
51 | W741E | with no effect
52 | Q677K | with no effect

Row | Variant | effect of a mutation on the interaction
53 | F527K | with no effect
54 | R726A | with no effect
55 | L533A | with no effect
56 | K492A | with no effect
57 | I612A | with no effect
58 | Q447K | with no effect
59 | L609A | with no effect
60 | Q807A | with no effect
61 | H694E | disrupting interaction strength
62 | V522E | with no effect
63 | L491E | with no effect
64 | V590A | with no effect
65 | V590K | with no effect
66 | R683K | with no effect
67 | V437E | with no effect
68 | V437A | with no effect
69 | L863E | with no effect
70 | V629A | with no effect
71 | V749E | with no effect
72 | L779E | with no effect
73 | Q643K | with no effect
74 | D696K | with no effect
75 | D480A | with no effect
76 | D762A | with no effect
77 | T478A | with no effect
78 | S639E | with no effect

Row | Variant | effect of a mutation on the interaction
79 | L825A | with no effect
80 | L720K | with no effect
81 | A504E | with no effect
82 | P802T | disrupting interaction strength
83 | F487E | with no effect
84 | P520K | with no effect
85 | P479E | with no effect
86 | V856A | with no effect
87 | V856E | with no effect
88 | I846A | with no effect
89 | V416E | with no effect
90 | Q574A | with no effect
91 | L457E | with no effect
92 | P834A | with no effect
93 | P834E | with no effect
94 | L446E | with no effect
95 | N515E | with no effect
96 | C525E | with no effect
97 | C525A | with no effect
98 | F864E | with no effect
99 | K687A | with no effect
100 | K687E | with no effect
101 | S423A | with no effect
102 | E644A | with no effect
103 | L500K | with no effect
104 | T428E | with no effect

Row | Variant | effect of a mutation on the interaction
105 | T445K | with no effect
106 | R483E | with no effect
107 | F684K | with no effect
108 | I451K | with no effect
109 | R876K | with no effect
110 | E647A | with no effect
111 | K803E | with no effect
112 | G718E | with no effect
113 | T512E | with no effect
114 | T512A | with no effect
115 | S555E | with no effect
116 | A730K | with no effect
117 | G518A | with no effect
118 | L699K | disrupting interaction strength
119 | N448E | with no effect
120 | S603A | with no effect
121 | T468E | with no effect
122 | P419A | with no effect
123 | V885E | with no effect
124 | R521A | with no effect
125 | R521E | with no effect
126 | P840K | with no effect
127 | E654K | disrupting interaction strength
128 | Q717K | with no effect
129 | R674Q | disrupting interaction strength
130 | R674W | disrupting interaction strength

Row | Variant | effect of a mutation on the interaction
131 | T874K | with no effect
132 | R528A | with no effect
133 | R528E | with no effect
134 | V671E | with no effect
135 | E862A | with no effect
136 | L757E | with no effect
137 | L436K | with no effect
138 | D608K | with no effect
139 | V444A | with no effect
140 | L727P | disrupting interaction strength
141 | E761A | with no effect
142 | T731K | with no effect
143 | S486R | disrupting interaction strength
144 | L620E | with no effect
145 | L759K | with no effect
146 | F624E | with no effect
147 | R656A | with no effect
148 | Q453E | with no effect
149 | L560K | with no effect
150 | S828A | with no effect
151 | S418K | with no effect
152 | L870E | with no effect
153 | A710K | with no effect
154 | D429E | with no effect
155 | G538E | with no effect
156 | N796E | with no effect

Row | Variant | effect of a mutation on the interaction
157 | M477E | with no effect
158 | Q672A | with no effect
159 | I738E | disrupting interaction strength
160 | T805A | with no effect
161 | Y508A | with no effect
162 | Y508K | with no effect
163 | T441K | with no effect
164 | K554A | with no effect
165 | G628A | with no effect
166 | Y490E | with no effect
167 | S439E | with no effect
168 | S439A | with no effect
169 | R587A | with no effect
170 | Q627E | with no effect
171 | Q627K | with no effect
172 | E466A | with no effect
173 | P530E | with no effect
174 | A670E | with no effect
175 | E848K | with no effect
176 | L665F | disrupting interaction strength
177 | L665A | with no effect
178 | T702A | with no effect
179 | S723A | with no effect
180 | S723K | disrupting interaction strength
